# IntAct's records for PubMed 8114715
# How the values were obtained:
# lck_human LCK [1] = biological target: lck_human LCK (UniProt P06239)
# lck_human LCK [2] = biological target: lck_human LCK (UniProt P06239); remark: listed apart in the source
# lck_human LCK [3] = biological target: lck_human LCK (UniProt P06239); remark: listed apart in the source
# lck_human LCK, sequence (P06239 whole entry, looked up): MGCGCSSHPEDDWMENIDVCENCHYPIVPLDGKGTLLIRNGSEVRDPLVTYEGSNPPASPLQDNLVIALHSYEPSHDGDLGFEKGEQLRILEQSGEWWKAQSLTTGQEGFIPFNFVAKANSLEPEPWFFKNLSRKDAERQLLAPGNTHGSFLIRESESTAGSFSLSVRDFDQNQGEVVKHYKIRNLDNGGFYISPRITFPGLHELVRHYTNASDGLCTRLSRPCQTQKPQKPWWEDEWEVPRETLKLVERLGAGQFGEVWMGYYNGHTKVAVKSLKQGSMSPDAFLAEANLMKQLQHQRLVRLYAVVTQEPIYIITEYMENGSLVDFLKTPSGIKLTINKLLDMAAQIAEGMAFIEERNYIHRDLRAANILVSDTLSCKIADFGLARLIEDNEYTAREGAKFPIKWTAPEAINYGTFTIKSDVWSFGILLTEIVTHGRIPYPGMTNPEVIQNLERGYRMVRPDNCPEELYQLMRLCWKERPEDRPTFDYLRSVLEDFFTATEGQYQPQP
# Tyrosine-protein phosphatase non-receptor type 6 (Homo sapiens), P29350 Y536F, sequence (P29350 whole entry Y536F): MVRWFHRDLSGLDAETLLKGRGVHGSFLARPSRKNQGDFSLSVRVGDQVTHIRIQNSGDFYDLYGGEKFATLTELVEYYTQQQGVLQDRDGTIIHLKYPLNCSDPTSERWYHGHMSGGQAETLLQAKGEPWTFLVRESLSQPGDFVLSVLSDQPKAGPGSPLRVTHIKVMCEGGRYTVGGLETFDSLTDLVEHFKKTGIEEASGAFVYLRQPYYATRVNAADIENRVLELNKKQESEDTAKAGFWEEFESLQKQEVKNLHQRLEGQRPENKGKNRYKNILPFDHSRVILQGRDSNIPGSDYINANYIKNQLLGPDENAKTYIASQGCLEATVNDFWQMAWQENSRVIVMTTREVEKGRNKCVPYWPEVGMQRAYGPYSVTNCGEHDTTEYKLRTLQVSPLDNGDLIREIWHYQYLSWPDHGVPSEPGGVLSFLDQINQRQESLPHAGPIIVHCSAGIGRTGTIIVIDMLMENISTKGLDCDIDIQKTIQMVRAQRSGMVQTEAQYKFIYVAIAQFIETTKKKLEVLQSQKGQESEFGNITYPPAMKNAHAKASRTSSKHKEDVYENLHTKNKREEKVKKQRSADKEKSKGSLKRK
# Tyrosine-protein phosphatase non-receptor type 6 (Homo sapiens), P29350 Y541F, sequence (P29350 whole entry Y541F): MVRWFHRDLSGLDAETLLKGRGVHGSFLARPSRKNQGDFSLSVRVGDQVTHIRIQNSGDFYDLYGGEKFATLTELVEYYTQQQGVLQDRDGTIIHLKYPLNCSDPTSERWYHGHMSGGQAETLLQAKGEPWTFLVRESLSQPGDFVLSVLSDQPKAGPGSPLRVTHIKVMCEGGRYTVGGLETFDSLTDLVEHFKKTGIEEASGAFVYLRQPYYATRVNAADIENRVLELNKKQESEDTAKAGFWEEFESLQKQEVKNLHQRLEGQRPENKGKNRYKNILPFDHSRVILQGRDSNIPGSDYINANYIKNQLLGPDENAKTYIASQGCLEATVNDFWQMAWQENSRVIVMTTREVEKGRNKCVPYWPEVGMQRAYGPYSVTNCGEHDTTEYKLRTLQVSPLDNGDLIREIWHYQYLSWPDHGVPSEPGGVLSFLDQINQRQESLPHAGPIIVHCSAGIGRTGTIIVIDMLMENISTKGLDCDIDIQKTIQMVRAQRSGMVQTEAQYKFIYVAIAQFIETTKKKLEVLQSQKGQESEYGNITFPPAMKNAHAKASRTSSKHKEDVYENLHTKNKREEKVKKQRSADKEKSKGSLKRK
# Tyrosine-protein phosphatase non-receptor type 6 (Homo sapiens), P29350 Y564F, sequence (P29350 whole entry Y564F): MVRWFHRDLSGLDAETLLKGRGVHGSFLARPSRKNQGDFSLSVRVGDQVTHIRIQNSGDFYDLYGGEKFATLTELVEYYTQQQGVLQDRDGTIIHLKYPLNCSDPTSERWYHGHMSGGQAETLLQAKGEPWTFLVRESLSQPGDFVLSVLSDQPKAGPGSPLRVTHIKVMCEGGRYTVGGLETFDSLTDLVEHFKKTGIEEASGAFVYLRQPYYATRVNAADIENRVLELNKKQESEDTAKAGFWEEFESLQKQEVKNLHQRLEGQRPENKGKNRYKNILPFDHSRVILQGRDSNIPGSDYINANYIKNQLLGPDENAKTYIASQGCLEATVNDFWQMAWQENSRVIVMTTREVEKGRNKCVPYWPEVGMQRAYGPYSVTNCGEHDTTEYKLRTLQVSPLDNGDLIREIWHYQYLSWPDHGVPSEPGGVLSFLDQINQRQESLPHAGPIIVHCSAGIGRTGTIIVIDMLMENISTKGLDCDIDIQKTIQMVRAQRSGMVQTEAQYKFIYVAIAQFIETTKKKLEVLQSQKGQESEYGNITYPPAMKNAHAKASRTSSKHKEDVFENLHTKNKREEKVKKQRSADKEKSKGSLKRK
substance,measurement,setting,value
"Tyrosine-protein phosphatase non-receptor type 6 (Homo sapiens), P29350 Y536F",effect of a mutation on the interaction,lck_human LCK [1],decreasing interaction
"Tyrosine-protein phosphatase non-receptor type 6 (Homo sapiens), P29350 Y541F",effect of a mutation on the interaction,lck_human LCK [2],decreasing interaction
"Tyrosine-protein phosphatase non-receptor type 6 (Homo sapiens), P29350 Y564F",effect of a mutation on the interaction,lck_human LCK [3],decreasing interaction
